Assay results from paper PMC12482190, “Characterization of PPE19 as a novel mediator of Mycobacterium tuberculosis-macrophage interactions” (mSphere, 2025).

Target: T1, PPE19-GST-bio (biotinylated PPE19 with an N-terminal GST tag) (Mycobacterium tuberculosis H37Rv, UniProt P9WI25 1-396)
T1 construct: also called biotinylated PPE19-GST; not shown: GST, N-terminal, kept
T1 sequence: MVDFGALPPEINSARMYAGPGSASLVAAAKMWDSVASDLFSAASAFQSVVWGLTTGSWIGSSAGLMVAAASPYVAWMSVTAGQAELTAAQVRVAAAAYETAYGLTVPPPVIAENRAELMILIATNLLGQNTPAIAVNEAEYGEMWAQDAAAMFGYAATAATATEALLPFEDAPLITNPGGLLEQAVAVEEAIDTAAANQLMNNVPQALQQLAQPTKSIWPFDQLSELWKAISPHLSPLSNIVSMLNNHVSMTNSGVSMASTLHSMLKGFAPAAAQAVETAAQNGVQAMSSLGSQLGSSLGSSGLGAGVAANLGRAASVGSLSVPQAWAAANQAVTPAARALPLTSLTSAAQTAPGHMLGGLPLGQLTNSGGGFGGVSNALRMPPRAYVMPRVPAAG
Experiment: AlphaScreen or HTRF
Conditions: both partners purified

B1: PE13-His (PE13 with a polyhistidine affinity tag) (natural protein)
chain: MSFVMAYPEMLAAAADTLQSIGATTVASNAAAAAPTTGVVPPAADEVSALTAAHFAAHAAMYQSVSARAAAIHDQFVATLASSASSYAATEVANAAAAS
- binding result: binds
